Consider 2 substances from EP4707393A1, “DOUBLE-STRANDED SIRNA, CONJUGATE THEREOF AND USE THEREOF” (CMS Research & Development Pte. Ltd., priority 2023, dated 2024).

The test system of one data set is LPA mRNA. In words: In vivo efficacy in LPA-HDI mouse model (liver LPA mRNA). More on the design: species or system BALB/c mouse. The following applies: 3 mg/kg single subcutaneous injection, Day 14, relative to PBS blank group, 4 mice per group. As for the experimental part:
The knockdown effect of the test double-stranded siRNA conjugate on the target gene LPA upon entry into the mouse is evaluated by rapid high-pressure injection of the physiological saline containing recombinant plasmid pcDNA-LPA carrying the target gene via the tail vein.
pcDNA-LPA plasmid, BALB/c mouse, PBS (phosphate buffer), and conjugates of the present invention.
Six-week-old female BALB/c mice were ordered and acclimated/quarantined for three days upon arrival in the animal room.
On Day 0, the mice were randomly grouped based on body weight data. After grouping, all mice were given a single administration via subcutaneous injection, with a dose volume of 10 mL/kg. Mice in Group 1 received PBS; mice in the other groups received the conjugates (dissolved in PBS).
On Day 13 post-administration, all mice were injected with normal saline containing the pcDNA-LPA plasmid via the tail vein within 5 seconds. The injection volume (mL) = mouse body weight (g) × 8%. The amount of plasmid injected per mouse was 10 µg.
On Day 14 post-administration, all groups of mice were euthanized by CO2 inhalation, and 2 liver samples were collected from each mouse. Liver samples were treated overnight with RNAlater at 4 °C, then RNAlater was removed, and stored at -80 °C for detection of LPA gene expression levels.

Data set [1] in a line: Melting temperature (Tm) by UV absorption at 260 nm. The class given is physicochemical. Particulars: phosphate buffer solution; average of at least two independent measurements. On the procedure: The Tm value was determined by recording the change in UV absorption at 260 nm of DNA/RNA in phosphate buffer solution as the temperature increased.
Table 6 Melting temperature (Tm) test instrument parameters
The melting temperature (Tm) was calculated from the first derivative of the smoothed heating curve, and the reported value was the average of at least two independent measurements. Table 7 Melting temperatures (Tm) of conjugates of the present disclosure

The subject of another data set is PHH cells. In words: Off-target assessment by RNA-sequencing in PHH cells. The class given is cell-based. Particulars: vs PBS, 48 hours; for Downregulated differential genes / Total differential genes / Upregulated differential genes: DESeq2 padj ≤ 0.05 |log2FoldChange| ≥ 1.0. As for the experimental part:
• 1.1 Double-stranded siRNA conjugates • 1.2 PHH cells, purchased from Research Institute for Liver Diseases(Shanghai)Co. Ltd. • 1.3 Main reagents: InvitroGRO CP Medium (Cat. No.: BIOIVT-S03316), Fetal Bovine Serum (Cat. No.: ExCellBio-FSP500), Penicillin-Streptomycin (Cat. No.: Hyclone-SV30010), TRLzol Reagent (Cat. No.: Ambion-15596018).
The cryopreserved PHH was taken from the liquid nitrogen and thawed in a water bath at 37 °C. The fully thawed PHH was transferred to a 10% FBS InvitrogRO CP medium and blended well, and counted using a counter. The cell density was adjusted to 6 × 10^5 cells/mL.
siRNAs were diluted with RNase-free PBS to 10 times the final concentration (for example, diluted to 1000 nM if the test concentration is 100 nM). The diluted siRNAs were then added to a collagen-coated 12-well plate at 100 µL/well, with 1 concentration point, 3 replicated wells, and blank PBS as the negative control group. PHH cells at a density of 6 × 10^5 cells/mL were added to the collagen-coated 12-well plate at 900 µL/well. The final concentrations of the test compounds were […]. The cell plates were incubated in a 5% CO2, 37 ° C incubator for 48 hours. After 48 hours, the medium was removed, 600µL of Trizol was added per well to lyse the cells, and sent to Beijing Novogene Co., Ltd. for RNA-sequencing.
NEB Standard Library Preparation: Fragmented mRNAs were used as a template and random oligonucleotides as primers. The first strand of cDNA was synthesized in an M-MuLV reverse transcriptase system. The RNA strand was then degraded with RNaseH, and the second strand of cDNA was synthesized using a DNA polymerase I system with dNTPs as raw materials. The purified double-stranded cDNA underwent end repair, A-tailing, and adapter ligation for sequencing. The cDNA of approximately 250-300 bp was screened out by AMPure XP beads, PCR amplified, and the PCR product was purified again by AMPure XP beads to finally obtain the library. The kit used for library construction was NEBNext® Ultra ™ RNA Library Prep Kit for Illumina.
After the library construction, quantification was primarily performed using a Qubit2.0 Fluorometer, and the library was diluted to 1.5 ng/µL. The insert size of the library was then detected using an Agilent 2100 bioanalyzer. If the insert size meets expectations, the effective concentration of the library was accurately quantified by qRT-PCR (an effective concentration of the library higher than 2nM) to ensure the quality of the library.
After passing quality control of the library, different libraries were pooled according to the effective concentration and target output data volume for Illumina sequencing. The basic principle of sequencing is Sequencing by Synthesis. Four fluorescently labeled dNTPs, DNA polymerase, and adapter primers were added to the sequencing flow cell for amplification. As each sequencing cluster extends the complementary strand, the incorporation of each fluorescently labeled dNTP can release the corresponding fluorescence. The sequencer captures the fluorescence signal and converts the optical signals into sequencing peaks through computer software, thereby obtaining the sequence information of the test fragments.
Experimental results were obtained through software analysis
Differential gene analysis takes DESeq2 padj ≤ 0.05 |log2FoldChange| ≥ 1.0 as the threshold. Table 8. Differential gene statistics

Turning to “Z42: siRNA conjugate: sense SEQ ID NO:49, ligand D01 at 3' end of sense strand, antisense SEQ ID NO:80 (sense CAGCCCCTTATTGTTATACGA; antisense NCGTATNACAATAAGGGGCNGTT; ligand D01 at sense 3' end; listed as RNA; modified_base 1: mod_base = OTHER; note = 2'-O-methylcytidine; modified_base 2: mod_base = OTHER; note = 2'-O-methyladenosine; modified_base 3: mod_base = OTHER; note = 2'-O-methylguanosine; modified_base 4..7: mod_base = OTHER; note = 2'-O-me; note = n is B33; note = 2'-deoxycytidine; modified_base 4: mod_base = OTHER; note = 2'-O-methyluridine; m)”, in the data set with LPA mRNA, the “% Downregulation of LPA mRNA” value was 78.0%. Besides, the “Melting temperature Tm” value in data set [1] was determined as 67.75 °C. In the data set on PHH cells, this substance displayed a Maximum up-regulation folds of 1.9, a Downregulated differential genes of 0, a Total differential genes of 4 and an Upregulated differential genes of 4.
“Z46: siRNA conjugate: sense SEQ ID NO:43, ligand D01 at 3' end of sense strand, antisense SEQ ID NO:66 (sense CAGCCCCTTATTGTTANACGA; antisense TCTCGTATNACAATAAGGGGCTG; ligand D01 at sense 3' end; listed as RNA; modified_base 1: mod_base = OTHER; note = 2'-O-methylcytidine; modified_base 2: mod_base = OTHER; note = 2'-O-methyladenosine; modified_base 3: mod_base = OTHER; note = 2'-O-methylguanosine; modified_base 4..7: mod_base = OTHER; note = 2'-O-me; note = 2'-O-methyluridine; modified_base 4: mod_base = OTHER; note = 2'-fluorocytidine; modified_base 5: mod_base = OTHER; note = 2'-O-methylg)”: the “% Downregulation of LPA mRNA” value in the data set with LPA mRNA amounted to 89.0%. In addition, the “Melting temperature Tm” value in data set [1] was found to be 76.75 °C. For the same substance, in the data set with PHH cells, the Downregulated differential genes came out at 0, the Total differential genes is recorded as 0 and the Upregulated differential genes is recorded as 0.
